Test results taken from patent US20090004212A1, “Tumour vaccines for MUC1-positive carcinomas” (priority 1997, published 2009).
Several values for one entry are separate records, joined by “and”; a condition that tells them apart may be missing. Equal entries are not always repeated. No end group written: not given here. O‑glycan = not defined here

B1: A(HGVTSAPESRPAPGSTAPPA)x3 (peptide, listed as Homo sapiens)
chain: AHGVTSAPESRPAPGSTAPPAHGVTSAPESRPAPGSTAPPAHGVTSAPESRPAPGSTAPPA
modifications: Fragment of digested MUC1

How the values were obtained:
[1] = target: T1, human 20S immunoproteasomes (Homo sapiens, UniProt P28062+P28065+P40306); experiment: In vitro proteolysis of MUC1 repeat peptides and glycopeptides by immunoproteasomes; assay type: biochemical; settings: for AHG 8 to -11 / PAP8 to -11 / SAP8 to -11: 8- to 11-meric fragments with this N-terminus, % of total 8- to 11-mers; for AVERAGE FRAGMENT LENGTH / NUMBER OF FRAGMENTS: digest by immunoproteasomes; for NUMBER OF FRAGMENTS: HPLC and MALDI-MS; for % of glycopeptide: glycosylated 8- to 11-meric fragments relative to total 8- to 11-mers; for 8-11 mers (%): relative to total amount of digestion products of immunoproteasomal cleavage
T1 construct: purchased Immatics Biotechnologies (Tübingen, Germany)
Protocol: A 1 mg/ml solution of immunoproteasomes prepared according to a published protocol (20) was purchased from Immatics Biotechnologies (Tübingen, Germany) and stored frozen at −80° C.
Glycopeptides were incubated with 10 μg of human 20S immunoproteasomes (Immatics) for […], at 37° C., in 10 μl of digestion buffer (20 mM HEPES/KOH, pH 7.6 containing 2 mM Mg(CH3COO)2 and 1 mM DTT) as described (13). Digestion was stopped after 24 h by freezing the sample at −80° C. Human cathepsin-L was purchased from Sigma (Munich, Germany) and solubilized in 0.1 M sodium acetate, pH 5.5, containing 1 mM EDTA and 1 mM dithiothreitol (12). About 5 mU of enzyme were added to sialoglycopeptide substrates SGGP1 to SGGP5 (75-100 μM) in a total volume of 20 μl. The reaction mixtures were incubated at 37° C. for 24 h and 1 μl of trifluoroacetic acid was added to stop the reaction. The reaction products were cleaned by solid-phase extraction on ZipTipC18 pipette tips and 0.5 μl aliquots were applied onto the MALDI target for mass spectrometric analysis. Kinetic studies with the non-glycosylated 100-mer P1 were performed under the same conditions and the products were chromatographed on HPLC for purification and quantification.

[2] = test system: DC2.4 mouse dendritic cells; experiment: Cellular processing and cross-presentation in mouse dendritic cell line, peptides eluted from exosomal MHC; assay type: cell-based
Protocol: Poly-lactic acid based vesicles were generated mixing two solutions: Solution A: 200 nmol of P2 peptide (1 mg) resolved in 3% cold water solution of poly-vinyl alcohol; Solution B: 5% poly-lactic acid in a mixture of ethanol and acetone (9:1, v/v). Solution B (30 ml) was slowly added to solution A (150 ml) under constant mixing and stirring overnight at room temperature. The next day the mixture was centrifuged at 10.000×g for 10 min and washed three times with PBS (200 ml), followed by centrifugation steps as mentioned previously. The generated vesicles were resuspended in 330 μl of PBS and added to media of 4×108 DC2.4 mouse dendritic cells growing confluent in nine cell culture flasks (300 cm^2). The cells were grown as usual, but in exosome-depleted medium.
Cells were incubated with PLA-vesicles for 24 h at 37° C. and 5% CO2. The cell culture supernatant was collected and exosomes were isolated by ultracentrifugation (see below). Isolated exosomes were resuspended in 100 μl 0.1% TFA/H2O. Acidification of exosomes denatures tertiary MHC complex and releases bound peptide epitopes. The solution was shortly spun and injected on a HPLC narrow-bore ODS column for separation of eluted peptides and glycopeptides. Fractions were collected manually, dried and analyzed by MALDI-TOF-MS as described. Molecular masses of detected ions were analyzed by the FindPep software and by nanospray ESI-MS/MS analyses.
Exosomes were isolated from FCS or cell culture supernatant by subsequent centrifugation steps: 10 min/1200 g; 30 min/10000×g; 30 min/20.000×g; and 60 min/[…]. The exosomes were pelleted in the final centrifugation step, washed with PBS and used for further analyses. For the depletion of FCS from exosomes, exosomes from serum were pelleted by ultracentrifugation at 110.000×g for 1 h.

HLA-A0201 = target: T2, HLA-A0201 (Homo sapiens, UniProt P04439, D140Y/D185E/D98H/E176V/E277Q/G131W/G231S/I119V/I121R/I166T/I218V/L300P/L318F/N151K/N90K/P208A/P217A/Q86G/Q94H/R138H/R169H/T345S); experiment: MHC stabilization assay on T2 cells; assay type: binding; settings: for ligation strength (binding to HLA-A0201): T2 cells, 100 μg peptide, 16 h, W6/32 antibody, FACS; for change of ligation strength by introduction of GalNAc: glycosylated versus non-glycosylated form
T2 construct: endogenous in cells; host or cells: T2 cell line (TAP-deficient)
Protocol: MHC stabilization assay is based on the increased affinity of HLA-A, -B, -C specific monoclonal W6/32 antibody for the stabilized conformation of MHC molecules after binding of a peptide ligand. The T2 cells express empty MHC molecules with short half-life.
For MHC stabilization assay T2 cells were grown in IMDM medium supplemented with 2% FCS. T2 cells were washed in PBS from the residual serum, and resuspended at 1×10^6/ml of IMDM supplemented with 0.1% FCS and 25 mM HEPES. Half of a million of cells were incubated in 48-well cell culture plate with 1 μg of […]2-microglobulin and 100 μg of peptide for 16 h at 27° C. and 8% CO2. Cells were washed with 5 ml PBS, centrifuged at 180×g for 5 min and the pellet was resuspended in 10 μl PBS containing 1 μg of W6/32 antibody and incubated at 4° C. for 30 minutes.
Subsequently, cells were washed in PBS with 1% BSA (3×5 ml) and the pellet was resuspended in 50 μl of secondary anti-mouse Alexa 488 antibody (1:1000 in PBS with 0.1% BSA), incubated for 30 minutes in the dark, washed with PBS (3×5 ml) and resuspended in 500 μl of PBS. Binding of the W6/32 antibody to MHC class I molecules was analyzed by FACS on the Beckman Coulter ADCXL4C flow cytometer. As a positive control hepatitis B virus core antigen HBVc18-27 P6Y˜C ([…]) was used. As a negative control T2 cells were used, to which no peptide was added.
Relative binding capacities of the peptides were expressed as the percent of the positive control signal (100%), normalized to the negative control (0%). A mean fluorescence that was at least 10% higher than the negative control level was considered positive binding.

T2 target cells = experiment: CTL activity against peptide-loaded T2 target cells (CFSE/7-AAD); assay type: cell-based, human; settings: T2 cells loaded with 10 μg/ml peptide, 6-hour incubation
Protocol: (§1) Peripheral blood mononuclear cells (PBMCs) were isolated from buffy coats of HLA-A*0201 healthy donors by Ficoll-Hypaque (MP Biomedicals, Solon, Ohio) density gradient centrifugation.
(§2) Dendritic cells (DCs) were generated by culturing adherent monocytes for 6 days in AIM-V medium (Invitrogen, Carlsbad, Calif.) supplemented with 500 U/mL granulocyte macrophage colonystimulating factor (GM-CSF, R&D, Minneapolis, Minn.) and 1000 U/mL interleukin (IL)-4 (R&D), and then matured for 48 hours with a cocktail of cytokines consisting of 10 ng/mL of each, tumor necrosis factor (TNF)-alpha, IL-6, IL-1beta (R&D), and 1 μg/mL prostaglandine E2 (Sigma, St. Louis, Mo.). […] DCs pulsed with single peptides were combined, washed, resuspended and used as stimulator cells. They were added to the autologous lymphocyte fraction in 24-well Linbro plates (ICN, Aurora, Ohio) at a ratio of 1:10 at culture initiation and fed in RPMI 1640 media supplemented with 10% human AB serum, 10 ng/ml rhIL-6 (R&D) and 5 ng/ml rhIL-12 (PreproTech, Rocky Hill, N.J.). On day 10 and thereafter every 9 days, T cells were restimulated at a ratio of 1 DC to 20 T cells, in RPMI 1640 media supplemented with 10% human AB serum, rhIL-2 and rhIL-7 (20 U/ml each, R&D).
(§3) Antigen Specificity was Assessed after 4 Stimulations. Three Days Past Each stimulation cell supernatant was collected and IFNy secretion was quantified using OptElA human IFNy ELISA kit (BD). CD8+ T-cells were enriched using magnetic microbeads (human CD8+ T Cell Isolation Kit II from Miltenyi Biotech, Auburn, Calif.) according to the manufacture's instructions and analyzed by flow cytometry for intracellular IFN-gamma and TNF-alpha production after a final 5-hour restimulation with peptide-loaded DCs in the presence of monensin (Golgi Stop, BD; 21). CTL activity was determined 3 days after the last restimulation. […] They were washed, labeled with 5- (and 6)-carboxyfluorescein diacetate succinimidyl ester (CFSE) according to the manufacture's instructions (Immunochemistry, Bloomington, Minn.) and added to a 96-well plate in duplicates at 5000 cells/well. CFSE labeled T2 cells not loaded with peptides were used as controls. CD8+ T effector cells were added at various E:T ratios for a 6-hour incubation at 37° C. Target cell death was detected by adding 7-amino-actinomycin (7-AAD, Immunochemistry) to each well 10 min before data analysis by flow cytometry and analysis was performed according to the manufacture's instructions (22).

CD8+ T-cells = experiment: IFN-gamma and TNF-alpha production by peptide-primed T-cells; assay type: cell-based, human; settings: after last cycle of restimulation, 4 weeks of in vitro culture
Protocol: as §1, §2, §3

Molecule	AVERAGE FRAGMENT LENGTH [1]	NUMBER OF FRAGMENTS [1]	% of glycopeptide [1]	8-11 mers (%) [1] [%]	class I binding activity [2]	other results
AHGVTSAPESRPAPGSTAPPA [GP5] (AHGVT(O‑glycan)SAPESRPAPGSTAPPA; not fully specified; reading uncertain; also: glycan structure not given here; listed as Homo sapiens) [MUC1 glycopeptide, glycosylated threonine within the VTS motif]	11.6	46	26%	79		AHG 8 to -11 [1]: 26%; PAP8 to -11 [1]: 47%; SAP8 to -11 [1]: 27%
AHGVTSAPESRPAPGSTAPPA [GP6] (AHGVTSAPES(O‑glycan)RPAPGSTAPPA; reading uncertain; also: glycan structure not given here; listed as Homo sapiens) [MUC1 glycopeptide, glycosylated within the ESR motif]	10.6	46	98% and 96%	35		AHG 8 to -11 [1]: 55%; PAP8 to -11 [1]: 3%; SAP8 to -11 [1]: 42%
AHGVTSAPESRPAPGSTAPPA [GP8] (AHGVTS(O‑glycan)APESRPAPGSTAPPA; reading uncertain; also: glycan structure not given here; listed as Homo sapiens) [chemically synthesized MUC1 derived glycopeptide, glycosylation site not readable]	10.5	46	21%	35		
AHGVTSAPESRPAPGSTAPPA [P4] (fragment of digested MUC1; listed as Homo sapiens) [Peptide P4]	11.6	31	0%	50		
APESRPAP (fragment of MUC1; listed as Homo sapiens)					considerable class I binding activity	
APESRPAPG (fragment of MUC1; listed as Homo sapiens)					considerable class I binding activity	
APESRPAPGS (fragment of MUC1; listed as Homo sapiens)					considerable class I binding activity	
HGVTSAPESRPAPGSTAPPA [GP7]	11.7	61	40% and 39%	29		AHG 8 to -11 [1]: 8%; PAP8 to -11 [1]: 31%; SAP8 to -11 [1]: 61%
PESRPAPGS (fragment of MUC1; listed as Homo sapiens)					considerable class I binding activity	
PESRPAPGST (fragment of MUC1; listed as Homo sapiens)					considerable class I binding activity	
S(-GalNAc)APDTRPAPG ({Ser(GalNAc)}-APDTRPAPG)						ligation strength (binding to HLA-A0201) (HLA-A0201): strongly reduce binding affinity in comparison with the corresponding nonglycosylated peptide
SAPES(GalNAc)RPAPG [Peptide F3]						lysis of peptide-pulsed T2 target cells by induced CD8+ T cells (T2 target cells): only minimal increased cell lysis above the background lysis; CD8+ cells producing IFN-γ (CD8+ T-cells): 18.1%; TNF-α production by CD8+ cells (CD8+ T-cells): not TNF-α
SAPESRPAPG (fragment of MUC 1; listed as Homo sapiens)					considerable class I binding activity	
SAPESRPAPGS (fragment of MUC1; listed as Homo sapiens)					considerable class I binding activity	
ST(-GalNAc)APPAHGVT ({Ser-T(GalNAc)}-APPAHGVT)						ligation strength (binding to HLA-A0201) (HLA-A0201): strongly reduce binding affinity in comparison with the corresponding nonglycosylated peptide
STAPPAHGV [STA9]						ligation strength (binding to HLA-A0201) (HLA-A0201): strongest binders; change of ligation strength by introduction of GalNAc (HLA-A0201): reducing it to the level of the negative control
STAPPAHGVT [STA10]					considerable class I binding activity	ligation strength (binding to HLA-A0201) (HLA-A0201): strongest binders; change of ligation strength by introduction of GalNAc (HLA-A0201): reducing it to the level of the negative control
B1	17.5	105	0%	26		
